Test results from US20140087995A1 (published 2014).
Numbered stars: 1 amine (or outer) side, 2 acyl side, 3 side chain; on linkers, the order of the positions; unused ones are H or OH. Bridge positions count the residues as written; N and C are the ends. Side chains are listed from the residue outwards. Ends that are not written are not given here. * marks the point of attachment. C20 diacid = O=C(O)CCCCCCCCCCCCCCCCCCC(=O)*; γGlu = O=C(O)[C@H](CCC(=O)[*:2])N[*:1]

B1: N^ε1-[(4S)-4-carboxy-4-(19-carboxynonadecanoylamino)butanoyl]-[Glu14,Arg17,Pro21,Pro27,Pro34,Arg35]-h-amylin (peptide)
peptide: K([γGlu-C20 diacid])CNTATCATQRLAEFLRHSSPNFGAIPSSTNVGPRTY-NH2
modifications: disulfide 2-7; N-terminus assumed
SMILES: CC[C@H](C)[C@H](NC(=O)[C@H](C)NC(=O)CNC(=O)[C@H](Cc1ccccc1)NC(=O)[C@H](CC(N)=O)NC(=O)[C@@H]1CCCN1C(=O)[C@H](CO)NC(=O)[C@H](CO)NC(=O)[C@H](Cc1c[nH]cn1)NC(=O)[C@H](CCCNC(=N)N)NC(=O)[C@H](CC(C)C)NC(=O)[C@H](Cc1ccccc1)NC(=O)[C@H](CCC(=O)O)NC(=O)[C@H](C)NC(=O)[C@H](CC(C)C)NC(=O)[C@H](CCCNC(=N)N)NC(=O)[C@H](CCC(N)=O)NC(=O)[C@@H](NC(=O)[C@H](C)NC(=O)[C@@H]1CSSC[C@H](NC(=O)[C@@H](N)CCCCNC(=O)CC[C@H](NC(=O)CCCCCCCCCCCCCCCCCCC(=O)O)C(=O)O)C(=O)N[C@@H](CC(N)=O)C(=O)N[C@@H]([C@@H](C)O)C(=O)N[C@@H](C)C(=O)N[C@@H]([C@@H](C)O)C(=O)N1)[C@@H](C)O)C(=O)N1CCC[C@H]1C(=O)N[C@@H](CO)C(=O)N[C@@H](CO)C(=O)N[C@H](C(=O)N[C@@H](CC(N)=O)C(=O)N[C@H](C(=O)NCC(=O)N1CCC[C@H]1C(=O)N[C@@H](CCCNC(=N)N)C(=O)N[C@H](C(=O)N[C@@H](Cc1ccc(O)cc1)C(N)=O)[C@@H](C)O)C(C)C)[C@@H](C)O
B2: N^ε1-[(4S)-4-carboxy-4-[[(4S)-4-carboxy-4-(19-carboxynonadecanoylamino)butanoyl]amino]butanoyl]-[Arg17,Pro21,Pro27,Pro31,Pro34,Arg35]-h-amylin (peptide)
peptide: K([γGlu-γGlu-C20 diacid])CNTATCATQRLANFLRHSSPNFGAIPSSTPVGPRTY-NH2
modifications: disulfide 2-7; N-terminus assumed
SMILES: CC[C@H](C)[C@H](NC(=O)[C@H](C)NC(=O)CNC(=O)[C@H](Cc1ccccc1)NC(=O)[C@H](CC(N)=O)NC(=O)[C@@H]1CCCN1C(=O)[C@H](CO)NC(=O)[C@H](CO)NC(=O)[C@H](Cc1c[nH]cn1)NC(=O)[C@H](CCCNC(=N)N)NC(=O)[C@H](CC(C)C)NC(=O)[C@H](Cc1ccccc1)NC(=O)[C@H](CC(N)=O)NC(=O)[C@H](C)NC(=O)[C@H](CC(C)C)NC(=O)[C@H](CCCNC(=N)N)NC(=O)[C@H](CCC(N)=O)NC(=O)[C@@H](NC(=O)[C@H](C)NC(=O)[C@@H]1CSSC[C@H](NC(=O)[C@@H](N)CCCCNC(=O)CC[C@H](NC(=O)CC[C@H](NC(=O)CCCCCCCCCCCCCCCCCCC(=O)O)C(=O)O)C(=O)O)C(=O)N[C@@H](CC(N)=O)C(=O)N[C@@H]([C@@H](C)O)C(=O)N[C@@H](C)C(=O)N[C@@H]([C@@H](C)O)C(=O)N1)[C@@H](C)O)C(=O)N1CCC[C@H]1C(=O)N[C@@H](CO)C(=O)N[C@@H](CO)C(=O)N[C@H](C(=O)N1CCC[C@H]1C(=O)N[C@H](C(=O)NCC(=O)N1CCC[C@H]1C(=O)N[C@@H](CCCNC(=N)N)C(=O)N[C@H](C(=O)N[C@@H](Cc1ccc(O)cc1)C(N)=O)[C@@H](C)O)C(C)C)[C@@H](C)O
B3: N^ε1-[(4S)-4-carboxy-4-(19-carboxynonadecanoylamino)butanoyl]-[Glu14,Arg17,Pro21,Pro27,His35]-h-amylin (peptide)
peptide: K([γGlu-C20 diacid])CNTATCATQRLAEFLRHSSPNFGAIPSSTNVGSHTY-NH2
modifications: disulfide 2-7; N-terminus assumed
SMILES: CC[C@H](C)[C@H](NC(=O)[C@H](C)NC(=O)CNC(=O)[C@H](Cc1ccccc1)NC(=O)[C@H](CC(N)=O)NC(=O)[C@@H]1CCCN1C(=O)[C@H](CO)NC(=O)[C@H](CO)NC(=O)[C@H](Cc1c[nH]cn1)NC(=O)[C@H](CCCNC(=N)N)NC(=O)[C@H](CC(C)C)NC(=O)[C@H](Cc1ccccc1)NC(=O)[C@H](CCC(=O)O)NC(=O)[C@H](C)NC(=O)[C@H](CC(C)C)NC(=O)[C@H](CCCNC(=N)N)NC(=O)[C@H](CCC(N)=O)NC(=O)[C@@H](NC(=O)[C@H](C)NC(=O)[C@@H]1CSSC[C@H](NC(=O)[C@@H](N)CCCCNC(=O)CC[C@H](NC(=O)CCCCCCCCCCCCCCCCCCC(=O)O)C(=O)O)C(=O)N[C@@H](CC(N)=O)C(=O)N[C@@H]([C@@H](C)O)C(=O)N[C@@H](C)C(=O)N[C@@H]([C@@H](C)O)C(=O)N1)[C@@H](C)O)C(=O)N1CCC[C@H]1C(=O)N[C@@H](CO)C(=O)N[C@@H](CO)C(=O)N[C@H](C(=O)N[C@@H](CC(N)=O)C(=O)N[C@H](C(=O)NCC(=O)N[C@@H](CO)C(=O)N[C@@H](Cc1c[nH]cn1)C(=O)N[C@H](C(=O)N[C@@H](Cc1ccc(O)cc1)C(N)=O)[C@@H](C)O)C(C)C)[C@@H](C)O
B4: N^ε1-[(4S)-4-carboxy-4-(19-carboxynonadecanoylamino)butanoyl]-[Asp14,Arg17,Pro21,Pro27,Pro34,Arg35]-h-amylin (peptide)
peptide: K([γGlu-C20 diacid])CNTATCATQRLADFLRHSSPNFGAIPSSTNVGPRTY-NH2
modifications: disulfide 2-7; N-terminus assumed
SMILES: CC[C@H](C)[C@H](NC(=O)[C@H](C)NC(=O)CNC(=O)[C@H](Cc1ccccc1)NC(=O)[C@H](CC(N)=O)NC(=O)[C@@H]1CCCN1C(=O)[C@H](CO)NC(=O)[C@H](CO)NC(=O)[C@H](Cc1c[nH]cn1)NC(=O)[C@H](CCCNC(=N)N)NC(=O)[C@H](CC(C)C)NC(=O)[C@H](Cc1ccccc1)NC(=O)[C@H](CC(=O)O)NC(=O)[C@H](C)NC(=O)[C@H](CC(C)C)NC(=O)[C@H](CCCNC(=N)N)NC(=O)[C@H](CCC(N)=O)NC(=O)[C@@H](NC(=O)[C@H](C)NC(=O)[C@@H]1CSSC[C@H](NC(=O)[C@@H](N)CCCCNC(=O)CC[C@H](NC(=O)CCCCCCCCCCCCCCCCCCC(=O)O)C(=O)O)C(=O)N[C@@H](CC(N)=O)C(=O)N[C@@H]([C@@H](C)O)C(=O)N[C@@H](C)C(=O)N[C@@H]([C@@H](C)O)C(=O)N1)[C@@H](C)O)C(=O)N1CCC[C@H]1C(=O)N[C@@H](CO)C(=O)N[C@@H](CO)C(=O)N[C@H](C(=O)N[C@@H](CC(N)=O)C(=O)N[C@H](C(=O)NCC(=O)N1CCC[C@H]1C(=O)N[C@@H](CCCNC(=N)N)C(=O)N[C@H](C(=O)N[C@@H](Cc1ccc(O)cc1)C(N)=O)[C@@H](C)O)C(C)C)[C@@H](C)O
B5: N^ε1-[(4S)-4-carboxy-4-(19-carboxynonadecanoylamino)butanoyl]-[His14,Arg17,Pro21,Pro27,Pro31,Pro34]-h-amylin (peptide)
peptide: K([γGlu-C20 diacid])CNTATCATQRLAHFLRHSSPNFGAIPSSTPVGPNTY-NH2
modifications: disulfide 2-7; N-terminus assumed
SMILES: CC[C@H](C)[C@H](NC(=O)[C@H](C)NC(=O)CNC(=O)[C@H](Cc1ccccc1)NC(=O)[C@H](CC(N)=O)NC(=O)[C@@H]1CCCN1C(=O)[C@H](CO)NC(=O)[C@H](CO)NC(=O)[C@H](Cc1c[nH]cn1)NC(=O)[C@H](CCCNC(=N)N)NC(=O)[C@H](CC(C)C)NC(=O)[C@H](Cc1ccccc1)NC(=O)[C@H](Cc1c[nH]cn1)NC(=O)[C@H](C)NC(=O)[C@H](CC(C)C)NC(=O)[C@H](CCCNC(=N)N)NC(=O)[C@H](CCC(N)=O)NC(=O)[C@@H](NC(=O)[C@H](C)NC(=O)[C@@H]1CSSC[C@H](NC(=O)[C@@H](N)CCCCNC(=O)CC[C@H](NC(=O)CCCCCCCCCCCCCCCCCCC(=O)O)C(=O)O)C(=O)N[C@@H](CC(N)=O)C(=O)N[C@@H]([C@@H](C)O)C(=O)N[C@@H](C)C(=O)N[C@@H]([C@@H](C)O)C(=O)N1)[C@@H](C)O)C(=O)N1CCC[C@H]1C(=O)N[C@@H](CO)C(=O)N[C@@H](CO)C(=O)N[C@H](C(=O)N1CCC[C@H]1C(=O)N[C@H](C(=O)NCC(=O)N1CCC[C@H]1C(=O)N[C@@H](CC(N)=O)C(=O)N[C@H](C(=O)N[C@@H](Cc1ccc(O)cc1)C(N)=O)[C@@H](C)O)C(C)C)[C@@H](C)O
B6: N^ε1-[(4S)-4-carboxy-4-(19-carboxynonadecanoylamino)butanoyl]-[Asp14,Arg17,Pro21,Pro27,Pro34,Glu35]-h-amylin (peptide)
peptide: K([γGlu-C20 diacid])CNTATCATQRLADFLRHSSPNFGAIPSSTNVGPETY-NH2
modifications: disulfide 2-7; N-terminus assumed
SMILES: CC[C@H](C)[C@H](NC(=O)[C@H](C)NC(=O)CNC(=O)[C@H](Cc1ccccc1)NC(=O)[C@H](CC(N)=O)NC(=O)[C@@H]1CCCN1C(=O)[C@H](CO)NC(=O)[C@H](CO)NC(=O)[C@H](Cc1c[nH]cn1)NC(=O)[C@H](CCCNC(=N)N)NC(=O)[C@H](CC(C)C)NC(=O)[C@H](Cc1ccccc1)NC(=O)[C@H](CC(=O)O)NC(=O)[C@H](C)NC(=O)[C@H](CC(C)C)NC(=O)[C@H](CCCNC(=N)N)NC(=O)[C@H](CCC(N)=O)NC(=O)[C@@H](NC(=O)[C@H](C)NC(=O)[C@@H]1CSSC[C@H](NC(=O)[C@@H](N)CCCCNC(=O)CC[C@H](NC(=O)CCCCCCCCCCCCCCCCCCC(=O)O)C(=O)O)C(=O)N[C@@H](CC(N)=O)C(=O)N[C@@H]([C@@H](C)O)C(=O)N[C@@H](C)C(=O)N[C@@H]([C@@H](C)O)C(=O)N1)[C@@H](C)O)C(=O)N1CCC[C@H]1C(=O)N[C@@H](CO)C(=O)N[C@@H](CO)C(=O)N[C@H](C(=O)N[C@@H](CC(N)=O)C(=O)N[C@H](C(=O)NCC(=O)N1CCC[C@H]1C(=O)N[C@@H](CCC(=O)O)C(=O)N[C@H](C(=O)N[C@@H](Cc1ccc(O)cc1)C(N)=O)[C@@H](C)O)C(C)C)[C@@H](C)O

Key:
[1] = target: T1, human calcitonin receptor (human, UniProt P30988 25-474); test: SPA competition against 125I-calcitonin, membranes of BHK cells with human calcitonin receptor (Assay VII)
T1 construct: whole, on cells; also called hCTR; hCT
T1 sequence (looked up): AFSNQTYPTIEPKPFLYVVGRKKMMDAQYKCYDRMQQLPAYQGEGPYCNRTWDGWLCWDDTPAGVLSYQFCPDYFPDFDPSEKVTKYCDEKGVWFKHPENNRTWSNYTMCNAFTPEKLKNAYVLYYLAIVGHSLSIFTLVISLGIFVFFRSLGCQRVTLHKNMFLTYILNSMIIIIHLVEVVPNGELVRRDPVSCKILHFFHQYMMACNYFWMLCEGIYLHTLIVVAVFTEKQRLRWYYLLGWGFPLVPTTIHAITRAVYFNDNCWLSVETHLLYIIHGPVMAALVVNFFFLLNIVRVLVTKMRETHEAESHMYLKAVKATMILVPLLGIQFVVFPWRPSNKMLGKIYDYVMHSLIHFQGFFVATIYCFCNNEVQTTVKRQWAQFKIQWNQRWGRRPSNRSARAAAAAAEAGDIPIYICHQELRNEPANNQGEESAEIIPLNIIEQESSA
Method in brief: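 BHK hCTR membranes 35 ng/μL + SPA beads 0.05 mg/well; buffer 50 mM Hepes pH 7.4, 1 mM CaCl2, 5 mM MgCl₂, 0.1% OA, 0.02% Tween20. 120 min, 25° C., shaking. Scintillation count; IC50 by one-site binding competition.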

[2] = target: T1, human calcitonin receptor; test: ratio of IC50 at human calcitonin receptor to IC50 at human amylin receptor (SPA competition assays)
Method in brief: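 IC₅₀ values were derived by one-site competition analysis of SPA counts. Cell membranes (35 ng/μL) with SPA beads were incubated with test compounds for 120 min at 25° C in Hepes buffer, pH 7.4, containing CaCl2, MgCl₂, OA and Tween20.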

Binder	IC50 [1] [nM]	Ratio hCT/hAmylin binding [2]
B1	6.3	38.6
B2	42.8	48.6
B3	26.1	26.4
B4	42.5	151
K([γGlu-C20 diacid])CNTATCATQRLAEFLRHSSPNFGAIPSSTNVGPHTY-NH2 (disulfide 2-7)	3.8	21.2
B5	2.04	24.8
B6	3.27	16.7
